Results reported in patent US20230265151A1, “GIP/GLP1 CO-AGONIST COMPOUNDS” (priority 2020, published 2023).
*1 amine or outer side, *2 acyl side, *3 side chain or, on linkers, in order; H or OH if unused. Where no end group is shown, it is not given here. Side-chain parts run from the residue outwards. [ ]: non-standard residue; d: D form. The star is where a group is joined. Decanoyl(10-(4-HOOC-PhO)) = O=C(O)c1ccc(OCCCCCCCCCC(=O)*)cc1; αMePhe(2-F) = C[C@](N)(Cc1ccccc1F)C(=O)O; γGlu = O=C(O)[C@H](CCC(=O)[*:2])N[*:1]; C14 diacid = O=C(O)CCCCCCCCCCCCC(=O)*; αMeY = C[C@](N)(Cc1ccc(O)cc1)C(=O)O; αMeL = CC(C)C[C@](C)(N)C(=O)O; Nle = CCCC[C@H](N)C(=O)O; Orn = NCCC[C@H](N)C(=O)O; AEEA = NCCOCCOCC(=O)O; Aib = CC(C)(N)C(=O)O

T1: human GIP receptor (human, UniProt P48546 22-466)
T1 sequence (looked up): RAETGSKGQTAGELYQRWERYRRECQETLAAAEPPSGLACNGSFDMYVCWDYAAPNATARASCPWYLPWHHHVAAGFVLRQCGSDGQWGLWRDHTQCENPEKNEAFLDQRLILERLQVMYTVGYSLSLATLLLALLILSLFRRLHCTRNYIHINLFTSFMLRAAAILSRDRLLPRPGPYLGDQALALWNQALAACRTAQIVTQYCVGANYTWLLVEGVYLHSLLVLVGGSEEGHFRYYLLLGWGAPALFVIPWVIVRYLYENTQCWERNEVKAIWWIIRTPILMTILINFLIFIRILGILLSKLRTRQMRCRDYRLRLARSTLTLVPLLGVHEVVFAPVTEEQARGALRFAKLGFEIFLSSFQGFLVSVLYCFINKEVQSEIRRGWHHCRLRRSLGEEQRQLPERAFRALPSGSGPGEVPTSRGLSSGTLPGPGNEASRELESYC


What was measured:
Test in all cases: cell-based or functional assay
human GIP receptor = biological target: T1, human GIP receptor
human GLP-1 receptor = human GLP-1 receptor (human, UniProt P43220 24-463)
human glucagon receptor = human glucagon receptor (human, UniProt P47871 26-477)

Binder | cAMP EC50 (1.0% HSA) (human GIP receptor) [nM] | cAMP Emax (1.0% HSA) (human GIP receptor) [%] | cAMP EC50 (1.0% HSA) (human GLP-1 receptor) [nM] | cAMP EC50 (1.0% HSA) (human glucagon receptor) [nM] | cAMP Emax (1.0% HSA) (human GLP-1 receptor) [%]
YXEGTXTSDXSIXLDXIAQXEFIKXLIKGGPSSGAPPPS (Y-Aib-EGT-αMeF(2F)-TSD-hTyr-SI-αMeL-LD-Orn-IAQ-Aib-EFIK((2-[2-(2-Amino-ethoxy)-ethoxy]-acetyl)2-(γ-Glu)-(10-(4-carboxyphenoxy)decanoyl))-αMeY-LIK((2-[2-(2-Amino-ethoxy)-ethoxy]-acetyl)2-(γ-Glu)-(10-(4-carboxyphenoxy)decanoyl))GGPSSGAPPPS-NH2) [Example 310] | 2.4 | 83.9 | 22 | > 9950 | –
YXEGTXTSDXSIXLDXKAQXKFIXXLIEGGPSSGAPPPS (Y-Aib-EGT-αMeF(2F)-TSD-Nle-SI-αMeL-LD-Orn-K((2-[2-(2-Amino-ethoxy)-ethoxy]-acetyl)2-(γ-Glu)-(10-(4-carboxyphenoxy)decanoyl))AQ-Aib-K((2-[2-(2-Amino-ethoxy)-ethoxy]-acetyl)2-(γ-Glu)-(10-(4-carboxyphenoxy)decanoyl))FI-(D-Glu)-αMeY-LIEGGPSSGAPPPS-NH2) [Example 321] | 0.631 | – | 13.9 | > 9950 | –
YXEGTXTSDXSIXLDXKAQXKFIXXLIEGGPSSGAPPPS (Y-Aib-EGT-αMeF(2F)-TSD-hTyr-SI-αMeL-LD-Orn-K((2-[2-(2-Amino-ethoxy)-ethoxy]-acetyl)2-(y-Glu)-(10-(4-carboxyphenoxy)decanoyl))AQ-Aib-K((2-[2-(2-Amino-ethoxy)-ethoxy]-acetyl)2-(γ-Glu)-(10-(4-carboxyphenoxy)decanoyl))FI-(D-Glu)-αMeY-LIEGGPSSGAPPPS-NH2) [Example 320] | 0.338 | 84.1 | 6.22 | > 9950 | –
YXEGTXTSDYXIXLDXIAQXXFIKXLIKGGPSSGAPPPS (Y-Aib-EGT-αMeF(2F)-TSDY-Aib-I-αMeL-LD-Orn-IAQ-Aib-Orn-FIK((2-[2-(2-Amino-ethoxy)-ethoxy]-acetyl)2-(γ-Glu)-CO-(CH2)12-CO2H)-αMeY-LIK((2-[2-(2-Amino-ethoxy)-ethoxy]-acetyl)2-(γ-Glu)-CO-(CH2)12-CO2H)GGPSSGAPPPS-NH2) [Example 316] | 1.11 | – | 19.2 | > 9950 | 113
YXEGTXTSDYXIXLDXIAQXEFIKXLIKGGPSSGAPPPS (Y-Aib-EGT-αMeF(2F)-TSDY-Aib-I-αMeL-LD-Orn-IAQ-Aib-EFIK(2-[2-(2-Amino-ethoxy)-ethoxy]-acetyl)2-(γ-Glu)-(11-(4-carboxyphenoxy)undecanoyl)-αMeY-LIK((2-[2-(2-Amino-ethoxy)-ethoxy]-acetyl)2-(γ-Glu)-(11-(4-carboxyphenoxy)undecanoyl)GGPSSGAPPPS-NH2)) [Example 312] | 4.48 | 89.5 | 50.8 | > 9950 | –
YXEGTXTSDXXIXLDXIAQXXFIKXLIKGGPSSGAPPPS (Y-Aib-EGT-αMeF(2F)-TSD-4Pal-Aib-I-αMeL-LD-Orn-IAQ-Aib-Orn-FIK((2-[2-(2-Amino-ethoxy)-ethoxy]-acetyl)2-(γ-Glu)-CO-(CH2)12-CO2H)-αMeY-LIK((2-[2-(2-Amino-ethoxy)-ethoxy]-acetyl)2-(γ-Glu)-CO-(CH2)12-CO2H)GGPSSGAPPPS-NH2) [Example 315] | 0.393 | 89.2 | 5.38 | > 9950 | 93.5
YXEGTXTSDXSIXLDXKAQXKFIXXLIEGGPSSGAPPPS (Y-Aib-EGT-αMeF(2F)-TSD-hTyr-SI-αMeL-LD-Orn-K((2-[2-(2-Amino-ethoxy)-ethoxy]-acetyl)2-(γ-Glu)-CO-(CH2)10-CH3)AQ-Aib-K((2-[2-(2-Amino-ethoxy)-ethoxy]-acetyl)2-(γ-Glu)-CO-(CH2)10-CH3)FI-(D-Glu)-αMeY-LIEGGPSSGAPPPS-NH2) [Example 323] | 0.694 | – | 9.52 | > 9950 | –
YXEGTXTSDXSIXLDXKAQXEFIXXLIKGGPSSGAPPPS (Y-Aib-EGT-αMeF(2F)-TSD-Nle-SI-αMeL-LD-Orn-K((2-[2-(2-Amino-ethoxy)-ethoxy]-acetyl)2-(γ-Glu)-(10-(4-carboxyphenoxy)decanoyl))AQ-Aib-EFI-(D-Glu)-αMeY-LIK((2-[2-(2-Amino-ethoxy)-ethoxy]-acetyl)2-(γ-Glu)-(10-(4-carboxyphenoxy)decanoyl))GGPSSGAPPPS-NH2) [Example 328] | 0.75 | – | 23.3 | > 9950 | –
YXEGTXTSDXXIXLDXIAQXEFIKXLIKGGPSSGAPPPS (Y-Aib-EGT-αMeF(2F)-TSD-4Pal-Aib-I-αMeL-LD-Orn-IAQ-Aib-EFIK(2-[2-(2-Amino-ethoxy)-ethoxy]-acetyl)2-(γ-Glu)-(11-(4-carboxyphenoxy)undecanoyl)-αMeY-LIK((2-[2-(2-Amino-ethoxy)-ethoxy]-acetyl)2-(γ-Glu)-(11-(4-carboxyphenoxy)undecanoyl)GGPSSGAPPPS-NH2)) [Example 311] | 2.16 | 98.3 | 33.8 | > 9950 | –
YXEGTXTSDXSIXLDXKAQXEFIXXLIKGGPSSGAPPPS (Y-Aib-EGT-αMeF(2F)-TSD-hTyr-SI-αMeL-LD-Orn-K((2-[2-(2-Amino-ethoxy)-ethoxy]-acetyl)2-(γ-Glu)-(10-(4-carboxyphenoxy)decanoyl))AQ-Aib-EFI-(D-Glu)-αMeY-LIK((2-[2-(2-Amino-ethoxy)-ethoxy]-acetyl)2-(γ-Glu)-(10-(4-carboxyphenoxy)decanoyl))GGPSSGAPPPS-NH2) [Example 327] | 0.751 | – | 13.6 | > 9950 | –
Y[Aib]EGT[αMePhe(2-F)]TSD[Nle]SI[αMeL]LD[Orn]IAQ[Aib]EFIK([AEEA-AEEA-γGlu-Decanoyl(10-(4-HOOC-PhO))])[αMeY]LIK([AEEA-AEEA-γGlu-Decanoyl(10-(4-HOOC-PhO))])GGPSSGAPPPS-NH2 [Example 314] | 3.51 | – | 38.6 | > 9950 | –
Y[Aib]EGT[αMePhe(2-F)]TSDV[Aib]I[αMeL]LD[Orn]IAQ[Aib][Orn]FIK([AEEA-AEEA-γGlu-C14 diacid])[αMeY]LIK([AEEA-AEEA-γGlu-C14 diacid])GGPSSGAPPPS-NH2 [Example 317] | 2.03 | 84.4 | 29.5 | > 9950 | –
